B1: KRT18 (parent)
chain: PQVRDWSHYFKIIEDLRAQIFANT

Variants of: B1
Assay: protein stability index of a GFP-peptide fusion (GPS, HEK-293T) (PSI 1-6); higher = more stable
Conditions: c terminus: a fixed tail appended
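Note: lentivirally expressed fusions sorted by FACS into six bins by GFP to DsRed ratio, PSI derived from sequencing read proportions per bin multiplied by bin number.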

**Q.** For PQVRDWSHYDKIIEDLRAQIFANT [F10D], which protein stability index is on record?
**A.** 1.9

**Q.** Which protein stability index does the source give for PQVRDWSHGFKIIEDLRAQIFANT [Y9G] here?
**A.** 1.75

**Q.** For PQVRDWIHYFKIIEDLRAQIFANT [S7I], which protein stability index is on record?
**A.** 2.13

**Q.** For PEVRDWSHYFKIIEDLRAQIFANT [Q2E], which protein stability index is on record?
**A.** 2.63

**Q.** For PQVRDWSHYFKIIEDLRAQIFLNT [A22L], which protein stability index is on record?
**A.** 1.45

**Q.** With PQVRDWSHYFKIIEDLRAQIGANT [F21G] as the variant, how does the protein stability index read?
**A.** 2.52

**Q.** With PQVRDWSHYFLIIEDLRAQIFANT [K11L] as the variant, how does the protein stability index read?
**A.** 3.02

**Q.** With PQVRDWSHYFWIIEDLRAQIFANT [K11W] as the variant, how does the protein stability index read?
**A.** 3.08

**Q.** For PQVWDWSHYFKIIEDLRAQIFANT [R4W], which protein stability index is on record?
**A.** 2.58

**Q.** Which protein stability index does the source give for PQVRDWSHYFKIIEDLKAQIFANT [R17K] here?
**A.** 3.07

**Q.** Which protein stability index does the source give for PQVRDWSHLFKIIEDLRAQIFANT [Y9L] here?
**A.** 2.17

**Q.** With PQVRDWSHYFKIIKDLRAQIFANT [E14K] as the variant, how does the protein stability index read?
**A.** 2.77

**Q.** Which protein stability index does the source give for PQVRDWSHYFKIIEDLRAQIFFNT [A22F] here?
**A.** 1.8

**Q.** For PQVRDWSHYFKIIEDLRAQINANT [F21N], which protein stability index is on record?
**A.** 2.46

**Q.** Which protein stability index does the source give for PQVRWWSHYFKIIEDLRAQIFANT [D5W] here?
**A.** 1.63

**Q.** For PQVRDWSHYFKIIEDLRAQIFANL [T24L], which protein stability index is on record?
**A.** 2.31

**Q.** With PQVRDWSHYFKIIEDLRAQITANT [F21T] as the variant, how does the protein stability index read?
**A.** 1.97

**Q.** Which protein stability index does the source give for PPVRDWSHYFKIIEDLRAQIFANT [Q2P] here?
**A.** 3.51

**Q.** For PQVRDWSHYFKIIEDLRATIFANT [Q19T], which protein stability index is on record?
**A.** 2.8

**Q.** For PQVRDWGHYFKIIEDLRAQIFANT [S7G], which protein stability index is on record?
**A.** 3.02

**Q.** For PQVRDWSHYFKIIEDLRAPIFANT [Q19P], which protein stability index is on record?
**A.** 1.97

**Q.** With PQVRQWSHYFKIIEDLRAQIFANT [D5Q] as the variant, how does the protein stability index read?
**A.** 2.44

**Q.** Which protein stability index does the source give for PQVRDWSPYFKIIEDLRAQIFANT [H8P] here?
**A.** 1.83

**Q.** With FQVRDWSHYFKIIEDLRAQIFANT [P1F] as the variant, how does the protein stability index read?
**A.** 1.7

**Q.** For PQVRDWSHYFKMIEDLRAQIFANT [I12M], which protein stability index is on record?
**A.** 1.92

**Q.** Which protein stability index does the source give for PQVRDWSHYGKIIEDLRAQIFANT [F10G] here?
**A.** 2.4

**Q.** With PQVRRWSHYFKIIEDLRAQIFANT [D5R] as the variant, how does the protein stability index read?
**A.** 3.09

**Q.** Which protein stability index does the source give for PQVRDWSHYFKIIEDLRAQWFANT [I20W] here?
**A.** 1.62

**Q.** Which protein stability index does the source give for PQVRDWSHYFKIIEVLRAQIFANT [D15V] here?
**A.** 2.32

**Q.** For PQVRDWSHYFKIIVDLRAQIFANT [E14V], which protein stability index is on record?
**A.** 2.11

**Q.** With PQVRDWSSYFKIIEDLRAQIFANT [H8S] as the variant, how does the protein stability index read?
**A.** 2.23

**Q.** For PQVRDWSHYFKIIEDLRAQIFANS [T24S], which protein stability index is on record?
**A.** 2.31

**Q.** With PQVMDWSHYFKIIEDLRAQIFANT [R4M] as the variant, how does the protein stability index read?
**A.** 2.69

**Q.** With PQVRDWSHYFKIIEDLRAQIFAQT [N23Q] as the variant, how does the protein stability index read?
**A.** 1.86

**Q.** For PQVRDWSHYFKISEDLRAQIFANT [I13S], which protein stability index is on record?
**A.** 2.15

**Q.** For PQVRDWSHYFKIIEDLRAQIFANH [T24H], which protein stability index is on record?
**A.** 2.43

**Q.** For PQVRDWSHYMKIIEDLRAQIFANT [F10M], which protein stability index is on record?
**A.** 2.56

**Q.** With PQVRDWSHYFIIIEDLRAQIFANT [K11I] as the variant, how does the protein stability index read?
**A.** 2.25

**Q.** For PQVSDWSHYFKIIEDLRAQIFANT [R4S], which protein stability index is on record?
**A.** 2.61

**Q.** For PQVRDWSHYFHIIEDLRAQIFANT [K11H], which protein stability index is on record?
**A.** 2.25

**Q.** With PQVRDWSHYFKIIERLRAQIFANT [D15R] as the variant, how does the protein stability index read?
**A.** 1.89

**Q.** With PQVRDWSHYFKIIEDLSAQIFANT [R17S] as the variant, how does the protein stability index read?
**A.** 2.02

**Q.** With PQVRDWSHYEKIIEDLRAQIFANT [F10E] as the variant, how does the protein stability index read?
**A.** 2.26

**Q.** With PQVRDWSDYFKIIEDLRAQIFANT [H8D] as the variant, how does the protein stability index read?
**A.** 1.92

**Q.** For PQVRDWSHYFKIIEDHRAQIFANT [L16H], which protein stability index is on record?
**A.** 2.13

**Q.** Which protein stability index does the source give for PQVRDWSHYFKDIEDLRAQIFANT [I12D] here?
**A.** 3.17

**Q.** Which protein stability index does the source give for PQVRDWSHYFKIIEDLRAQIHANT [F21H] here?
**A.** 2.4

**Q.** Which protein stability index does the source give for PQVRDWSHYFKFIEDLRAQIFANT [I12F] here?
**A.** 1.9

**Q.** Which protein stability index does the source give for PQVRDWSHYFKIYEDLRAQIFANT [I13Y] here?
**A.** 1.72

**Q.** For PQVRDWSHYFKIIMDLRAQIFANT [E14M], which protein stability index is on record?
**A.** 2.32

**Q.** Which protein stability index does the source give for PQVRDWSHYFDIIEDLRAQIFANT [K11D] here?
**A.** 1.84

**Q.** With PQVRDWSHYFKIIEDLRAFIFANT [Q19F] as the variant, how does the protein stability index read?
**A.** 1.7

**Q.** Which protein stability index does the source give for PQVRDWSHYFKIIEDLRAQLFANT [I20L] here?
**A.** 2

**Q.** For PQVRDGSHYFKIIEDLRAQIFANT [W6G], which protein stability index is on record?
**A.** 2.14

**Q.** Which protein stability index does the source give for PQVRDWSHYFKIIEDLRAQIFNNT [A22N] here?
**A.** 2.53

**Q.** Which protein stability index does the source give for PQFRDWSHYFKIIEDLRAQIFANT [V3F] here?
**A.** 2.24

**Q.** Which protein stability index does the source give for PQVRDWSHYFKIIEDLRAQIAANT [F21A] here?
**A.** 2.83

**Q.** For PQVRDWSHYFKIIEDLEAQIFANT [R17E], which protein stability index is on record?
**A.** 2.61

**Q.** For PQVRCWSHYFKIIEDLRAQIFANT [D5C], which protein stability index is on record?
**A.** 2.2

**Q.** For PQVRDWSHYFKIINDLRAQIFANT [E14N], which protein stability index is on record?
**A.** 2.03

**Q.** Which protein stability index does the source give for PQVRDWSHYYKIIEDLRAQIFANT [F10Y] here?
**A.** 1.54

**Q.** For PQVRDWSHYFKIIEDLFAQIFANT [R17F], which protein stability index is on record?
**A.** 1.54

**Q.** Which protein stability index does the source give for PQVRDWSHYFKIIEDERAQIFANT [L16E] here?
**A.** 2.63

**Q.** For PQVRDWSCYFKIIEDLRAQIFANT [H8C], which protein stability index is on record?
**A.** 1.78

**Q.** Which protein stability index does the source give for PQVRDWSHYFKIIEDLRAQIFMNT [A22M] here?
**A.** 2.37

**Q.** Which protein stability index does the source give for PQVRDWSHYFKIIEDLRAQIFAPT [N23P] here?
**A.** 1.91

**Q.** For PQVRDWSHYFKIMEDLRAQIFANT [I13M], which protein stability index is on record?
**A.** 1.62

**Q.** For PQVRDWSHYFKIIEDLRAQYFANT [I20Y], which protein stability index is on record?
**A.** 2.16

**Q.** For PQVNDWSHYFKIIEDLRAQIFANT [R4N], which protein stability index is on record?
**A.** 2.63

**Q.** For PQGRDWSHYFKIIEDLRAQIFANT [V3G], which protein stability index is on record?
**A.** 2.13

**Q.** Which protein stability index does the source give for PQVRDWSHYFKIIEDLRTQIFANT [A18T] here?
**A.** 1.48

**Q.** For PQVRDWSHYFKIIEDLRAQIFANA [T24A], which protein stability index is on record?
**A.** 1.9

**Q.** With PQVRDWSHYFKIIEDLRAQIFANG [T24G] as the variant, how does the protein stability index read?
**A.** 2.5

**Q.** For PQVRDWSHYFKIIEDLCAQIFANT [R17C], which protein stability index is on record?
**A.** 1.62

**Q.** Which protein stability index does the source give for PQVRDWSHYFKIIEDLRAQIWANT [F21W] here?
**A.** 1.84

**Q.** For PQVRDWSHYFKIIEDSRAQIFANT [L16S], which protein stability index is on record?
**A.** 2.03

**Q.** Which protein stability index does the source give for VQVRDWSHYFKIIEDLRAQIFANT [P1V] here?
**A.** 2.2

**Q.** With PQVRDWSHVFKIIEDLRAQIFANT [Y9V] as the variant, how does the protein stability index read?
**A.** 2.48

**Q.** Which protein stability index does the source give for PQVRDKSHYFKIIEDLRAQIFANT [W6K] here?
**A.** 1.97

**Q.** For PQVRDWSHYFKIIEDLRAQIFDNT [A22D], which protein stability index is on record?
**A.** 2.49

**Q.** Which protein stability index does the source give for HQVRDWSHYFKIIEDLRAQIFANT [P1H] here?
**A.** 1.99

**Q.** For PQVRDRSHYFKIIEDLRAQIFANT [W6R], which protein stability index is on record?
**A.** 2.13

**Q.** With PQVRDWSVYFKIIEDLRAQIFANT [H8V] as the variant, how does the protein stability index read?
**A.** 2.17

**Q.** Which protein stability index does the source give for PQVRDWSHYNKIIEDLRAQIFANT [F10N] here?
**A.** 1.89

**Q.** Which protein stability index does the source give for PQVYDWSHYFKIIEDLRAQIFANT [R4Y] here?
**A.** 1.61

**Q.** With PWVRDWSHYFKIIEDLRAQIFANT [Q2W] as the variant, how does the protein stability index read?
**A.** 1.82

**Q.** With AQVRDWSHYFKIIEDLRAQIFANT [P1A] as the variant, how does the protein stability index read?
**A.** 1.31

**Q.** With PQVRDHSHYFKIIEDLRAQIFANT [W6H] as the variant, how does the protein stability index read?
**A.** 1.85

**Q.** For PQVCDWSHYFKIIEDLRAQIFANT [R4C], which protein stability index is on record?
**A.** 1.99

**Q.** With PQVRDWSHYFKIIEDLRAQIFANR [T24R] as the variant, how does the protein stability index read?
**A.** 2.23

**Q.** Which protein stability index does the source give for PQVRDWSHEFKIIEDLRAQIFANT [Y9E] here?
**A.** 2.55

**Q.** For PQMRDWSHYFKIIEDLRAQIFANT [V3M], which protein stability index is on record?
**A.** 1.84

**Q.** With PQVRGWSHYFKIIEDLRAQIFANT [D5G] as the variant, how does the protein stability index read?
**A.** 1.99

**Q.** For PQVRDWSHYFKIIEDRRAQIFANT [L16R], which protein stability index is on record?
**A.** 2.33

Reference: the supplement of paper PMC10567573
